Measurements as given in patent publication US20260209384A1 (Stanford University, published 2026).
Each block holds one binder with its values, some of them ahead of it.

Tests used:
[1] = target: T1, recombinant human GPC2 (R&D Systems) (human, UniProt Q8N158 24-554, limits assumed, labelled with Dylight488 or Dylight650 in the flow cytometry assays; unlabelled in the ELISA); experiment: flow cytometry, CAR T cells stained with fluorescently labelled recombinant GPC2
T1 construct: extracellular domain; also called hGPC2; human Glypican-2
T1 sequence (looked up): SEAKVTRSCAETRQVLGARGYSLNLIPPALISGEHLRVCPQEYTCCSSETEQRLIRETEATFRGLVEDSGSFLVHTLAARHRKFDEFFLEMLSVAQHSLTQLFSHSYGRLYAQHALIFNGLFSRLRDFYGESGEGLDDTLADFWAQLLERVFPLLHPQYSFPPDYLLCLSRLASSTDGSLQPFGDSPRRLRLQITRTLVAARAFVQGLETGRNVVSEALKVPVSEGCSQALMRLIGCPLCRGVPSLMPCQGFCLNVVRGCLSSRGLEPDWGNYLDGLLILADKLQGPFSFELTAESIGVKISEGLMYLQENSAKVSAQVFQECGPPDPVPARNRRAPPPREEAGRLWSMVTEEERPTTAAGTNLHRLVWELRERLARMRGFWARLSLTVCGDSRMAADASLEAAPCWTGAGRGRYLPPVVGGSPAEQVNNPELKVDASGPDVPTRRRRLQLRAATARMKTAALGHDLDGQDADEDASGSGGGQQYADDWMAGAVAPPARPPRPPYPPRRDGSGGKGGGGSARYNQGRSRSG
Description: Primary human T cells were isolated from healthy donors using the RosetteSep Human T cell Enrichment kit (Stem Cell Technologies) using buffy coats were derived from the Stanford Blood Center and processed according to the manufacturer's protocol using Lymphoprep density gradient medium and SepMate-50 tubes. Isolated T cells were cryopreserved in CryoStor CS10 cryopreservation medium (Stem Cell Technologies). Cryopreserved T cells were thawed and activated with Human T-Expander CD3/CD28 Dynabeads (Gibco) at a 3:1 beads: cell ratio in AIM-V media supplemented with 5% FBS, 10 mM HEPES, 2 mM 1-glutamine, 100 U/mL penicillin, and 100 μg/mL streptomycin (Gibco) and with 100 IU/ml of recombinant IL-2 (Preprotech). T cells were transduced with retroviral vector on days 2 and 3 post activation and anti-CD3/CD28 beads were removed on day 5. CAR T-cells were maintained at 0.3-1×10⁶ cells per mL in T cell medium with IL2. CAR expression was assessed by Flow Cytometry after incubation with soluble, recombinant, human GPC2 (R&D systems) labelled with Dylight488 or Dylight650. CAR T cells were used for in vitro assays or transferred into mice on day 10 post activation.
Data was collected with an LSR Fortessa X-20 (BD Bioscience) and analyzed using the FlowJo software. Cells were harvested, washed twice with FACS buffer (PBS supplemented with 2% FBS and 0.4% 0.5 M EDTA) and stained for 30 min in the dark on ice. Cells were washed 3 times with FACS buffer after each incubation step. Cells were gated on viable cells and singlet discrimination (FSC-A/FSC-H) was performed before assessment of antigen expression. Semiquantitative assessment of GPC2 antigen density in molecules per cell was estimated using the BD Quantibrite Kit per the manufacturer's protocol.

[2] = target: T1, recombinant human GPC2 (R&D Systems); experiment: ELISA, antigen coated on plate, anti-human Fc-HRP detection
Experimental: (§1) Fully human GPC2.19-IgG1 antibody was transiently expressed in 293 FreeStyle cells. Antibody was isolated from culture supernatant using protein A beads (Fisher). Isolated antibody was washed using PBS and Amicon […] filter columns. Binding of GPC2.19-IgG1 to GPC2 antigen was measured via ELISA. Recombinant human and mouse GPC2 antigens were purchased from R&D Systems, dry milk was from BioRad. All other chemicals were biological grade. High absorbance 96-well ELISA plates were coated with antigen overnight using […] stock solution per well at 2 μg/ml. Experiments were performed at 4° C. Antigen coated plates were blocked using 3% milk in PBS and 0.5% TWEEN® 20 for 2 h. Blocked plates were incubated with one of the tested primary antibodies for 1 hour, washed 5 times (BioTek plate washer) and incubated with anti-human Fc-HRP (Sigma) as the secondary antibody for 1 hour. Secondary antibody was washed five times, the HRP substrate TMB (Sigma) was added and plate was incubated for 3 minutes. TMB oxidation was stopped with 2.5 M sulfuric acid. Plates' absorbance was measured on plate reader (BioRad) at 415 nm.

[3] = target: T2, recombinant murine GPC2 (R&D Systems) (mouse, UniProt Q8BKV1 22-556, limits assumed, labelled with Dylight488 in the flow cytometry assay of FIG. 9B; unlabelled in the ELISA); experiment: as above
T2 construct: Bought recombinant protein; also called mGPC2; mouse GPC2
T2 sequence (looked up): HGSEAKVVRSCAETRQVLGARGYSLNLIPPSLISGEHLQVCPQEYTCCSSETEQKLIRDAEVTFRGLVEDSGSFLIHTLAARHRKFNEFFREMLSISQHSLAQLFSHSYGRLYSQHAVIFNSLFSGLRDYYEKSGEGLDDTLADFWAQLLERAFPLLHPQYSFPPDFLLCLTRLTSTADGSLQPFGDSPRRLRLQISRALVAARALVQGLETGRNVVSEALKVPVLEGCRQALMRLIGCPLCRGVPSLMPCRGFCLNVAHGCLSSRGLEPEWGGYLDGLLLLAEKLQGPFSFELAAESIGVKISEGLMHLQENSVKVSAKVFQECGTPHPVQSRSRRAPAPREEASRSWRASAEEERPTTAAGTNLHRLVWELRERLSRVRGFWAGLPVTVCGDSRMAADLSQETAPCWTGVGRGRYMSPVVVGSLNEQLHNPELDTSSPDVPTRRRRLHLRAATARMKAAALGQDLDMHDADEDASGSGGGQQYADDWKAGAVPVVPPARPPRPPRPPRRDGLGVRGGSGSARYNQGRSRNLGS
Experimental: as §1

[4] = target: T2, recombinant murine GPC2 (R&D Systems); experiment: flow cytometry, CAR T cells stained with Dylight488-labelled murine GPC2

binding result [1]: binds
B6: GPC2.19VLVH.28H-28TM.41BBz (other)
chain: DIQMTQSPSSLSASIGDRVTITCQASQDISDYLNWYQQKPGKAPKLLIYDASNLETGVPSRFSGSGSGTDFTFTISSLQPEDVATYYCQQYDNLPITFGQGTKLEIKRGGGGSGGGASGGGGSQLQLQESGPGLVKPSETLSLTCTVSGGSISSSSYYWSWIRQPPGKGLEWIGSIYYSGSTYYNPSLKSRVTISVDTSKNQFSLKLSSVTAADTAVYYCARRVSGHPFDPWGQGTLVTVSSAAAIEVMYPPPYLDNEKSNGTIIHVKGKHLCPSPLFPGPSKPFWVLVVVGGVLACYSLLVTVAFIIFWVKRGRKKLLYIFKQPFMRPVQTTQEEDGCSCRFPEEEEGGCELRVKFSRSADAPAYKQGQNQLYNELNLGRREEYDVLDKRRGRDPEMGGKPRRKNPQEGLYNELQKDKMAEAYSEIGMKGERRRGKGHDGLYQGLSTATKDTYDALHMQALPPR
notes: also called GPC2.19 CAR with CD28 hinge-transmembrane domains and 41BB costimulatory domain

binding result [1]: binds
B7: GPC2.27 CAR in VL-L-VH orientation with CD8a hinge-transmembrane domain and 41BBz signaling domain (other)
chain: EIVMTQSPATLSASVGDRVTIACRASQTISRYLNWYQQKPGKAPKLLIYAASSLQSGVSSRFSGSGSGTEFTLTISSLQPEDFATYFCQQTYSPPITFGQGTRLEIKRGGGGSGGGASGGGGSEVQLVESGPGLVKPSETLSLTCAVSGYSISSGYYWGWIRQPPGKGLEWIGSIYHSGSTYYNPSLKSRVTISVDTSKNQFSLKLSSVTAADTAVYYCASLPSRGGFDYWGQGTLVTVSSATTTPAPRPPTPAPTIASQPLSLRPEACRPAAGGAVHTRGLDFACDIYIWAPLAGTCGVLLLSLVITLYCKRGRKKLLYIFKQPFMRPVQTTQEEDGCSCRFPEEEEGGCELRVKFSRSADAPAYKQGQNQLYNELNLGRREEYDVLDKRRGRDPEMGGKPRRKNPQEGLYNELQKDKMAEAYSEIGMKGERRRGKGHDGLYQGLSTATKDTYDALHMQALPPR
notes: also called GPC2.27 VL-L-VH CAR

Continued, binder first:

B1: GPC2.19VLVH.28H-28TM.28z (other)
chain: DIQMTQSPSSLSASIGDRVTITCQASQDISDYLNWYQQKPGKAPKLLIYDASNLETGVPSRFSGSGSGTDFTFTISSLQPEDVATYYCQQYDNLPITFGQGTKLEIKRGGGGSGGGASGGGGSQLQLQESGPGLVKPSETLSLTCTVSGGSISSSSYYWSWIRQPPGKGLEWIGSIYYSGSTYYNPSLKSRVTISVDTSKNQFSLKLSSVTAADTAVYYCARRVSGHPFDPWGQGTLVTVSSAAAIEVMYPPPYLDNEKSNGTIIHVKGKHLCPSPLFPGPSKPFWVLVVVGGVLACYSLLVTVAFIIFWVRSKRSRLLHSDYMNMTPRRPGPTRKHYQPYAPPRDFAAYRSRVKFSRSADAPAYQQGQNQLYNELNLGRREEYDVLDKRRGRDPEMGGKPRRKNPQEGLYNELQKDKMAEAYSEIGMKGERRRGKGHDGLYQGLSTATKDTYDALHMQALPPR
notes: also called GPC2.28TM.28z CAR; GPC2.19 CAR with CD28 hinge-transmembrane domains and CD28 costimulatory domain
binding result [1]: binds

B2: GPC2.19 CAR in VH-L-VL orientation with CD8a hinge-transmembrane domain and 41BBz signaling domain (other)
chain: QLQLQESGPGLVKPSETLSLTCTVSGGSISSSSYYWSWIRQPPGKGLEWIGSIYYSGSTYYNPSLKSRVTISVDTSKNQFSLKLSSVTAADTAVYYCARRVSGHPFDPWGQGTLVTVSSGGGGSGGGASGGGGSDIQMTQSPSSLSASIGDRVTITCQASQDISDYLNWYQQKPGKAPKLLIYDASNLETGVPSRFSGSGSGTDFTFTISSLQPEDVATYYCQQYDNLPITFGQGTKLEIKRATTTPAPRPPTPAPTIASQPLSLRPEACRPAAGGAVHTRGLDFACDIYIWAPLAGTCGVLLLSLVITLYCKRGRKKLLYIFKQPFMRPVQTTQEEDGCSCRFPEEEEGGCELRVKFSRSADAPAYKQGQNQLYNELNLGRREEYDVLDKRRGRDPEMGGKPRRKNPQEGLYNELQKDKMAEAYSEIGMKGERRRGKGHDGLYQGLSTATKDTYDALHMQALPPR
notes: also called GPC2.19 VH-L-VL CAR
binding result [1]: binds

B3: GPC2.19-IgG1 (antibody, V domains shown)
VH: QLQLQESGPGLVKPSETLSLTCTVSGGSISSSSYYWSWIRQPPGKGLEWIGSIYYSGSTYYNPSLKSRVTISVDTSKNQFSLKLSSVTAADTAVYYCARRVSGHPFDPWGQGTLVTVSS
VL: DIQMTQSPSSLSASIGDRVTITCQASQDISDYLNWYQQKPGKAPKLLIYDASNLETGVPSRFSGSGSGTDFTFTISSLQPEDVATYYCQQYDNLPITFGQGTKLEIKR
notes: also called GPC2.IgG1; fully human GPC2.19-IgG1 antibody
EC50 [2]: ~1 nM
EC50 [3]: ~1 nM

B4: GPC2.27 CAR in VH-L-VL orientation with CD8a hinge-transmembrane domain and 41BBz signaling domain (other)
chain: EVQLVESGPGLVKPSETLSLTCAVSGYSISSGYYWGWIRQPPGKGLEWIGSIYHSGSTYYNPSLKSRVTISVDTSKNQFSLKLSSVTAADTAVYYCASLPSRGGFDYWGQGTLVTVSSGGGGSGGGASGGGGSEIVMTQSPATLSASVGDRVTIACRASQTISRYLNWYQQKPGKAPKLLIYAASSLQSGVSSRFSGSGSGTEFTLTISSLQPEDFATYFCQQTYSPPITFGQGTRLEIKRATTTPAPRPPTPAPTIASQPLSLRPEACRPAAGGAVHTRGLDFACDIYIWAPLAGTCGVLLLSLVITLYCKRGRKKLLYIFKQPFMRPVQTTQEEDGCSCRFPEEEEGGCELRVKFSRSADAPAYKQGQNQLYNELNLGRREEYDVLDKRRGRDPEMGGKPRRKNPQEGLYNELQKDKMAEAYSEIGMKGERRRGKGHDGLYQGLSTATKDTYDALHMQALPPR
notes: also called GPC2.27 VH-L-VL CAR
binding result [1]: binds

B5: GPC2.19VLVH.8aH-8aTM.41BBz (other)
chain: DIQMTQSPSSLSASIGDRVTITCQASQDISDYLNWYQQKPGKAPKLLIYDASNLETGVPSRFSGSGSGTDFTFTISSLQPEDVATYYCQQYDNLPITFGQGTKLEIKRGGGGSGGGASGGGGSQLQLQESGPGLVKPSETLSLTCTVSGGSISSSSYYWSWIRQPPGKGLEWIGSIYYSGSTYYNPSLKSRVTISVDTSKNQFSLKLSSVTAADTAVYYCARRVSGHPFDPWGQGTLVTVSSATTTPAPRPPTPAPTIASQPLSLRPEACRPAAGGAVHTRGLDFACDIYIWAPLAGTCGVLLLSLVITLYCKRGRKKLLYIFKQPFMRPVQTTQEEDGCSCRFPEEEEGGCELRVKFSRSADAPAYKQGQNQLYNELNLGRREEYDVLDKRRGRDPEMGGKPRRKNPQEGLYNELQKDKMAEAYSEIGMKGERRRGKGHDGLYQGLSTATKDTYDALHMQALPPR
notes: also called GPC2.19 CAR; GPC2.8aTM.41BBz CAR
binding result [4]: binds
binding result [1]: binds
